# Measurements as given in patent US20190142971A1, “FORMULATION AND DELIVERY OF MODIFIED NUCLEOSIDE, NUCLEOTIDE, AND NUCLEIC ACID COMPOSITIONS” (ModernaTX, Inc., priority 2013, published 2019).
# Like-named read-outs stand apart in the source and are kept apart here.
# B1: G-CSF Gen 2: G-CSF mRNA (SEQ ID NO: 4) fully modified with 5-methylcytosine and N1-methylpseudouridine (nucleic acid)
# chain: GGGAAAUAAGAGAGAAAAGAAGAGUAAGAAGAAAUAUAAGAGCCACCAUGGCCGGUCCCGCGACCCAAAGCCCCAUGAAACUUAUGGCCCUGCAGUUGCUGCUUUGGCACUCGGCCCUCUGGACAGUCCAAGAAGCGACUCCUCUCGGACCUGCCUCAUCGUUGCCGCAGUCAUUCCUUUUGAAGUGUCUGGAGCAGGUGCGAAAGAUUCAGGGCGAUGGAGCCGCACUCCAAGAGAAGCUCUGCGCGACAUACAAACUUUGCCAUCCCGAGGAGCUCGUACUGCUCGGGCACAGCUUGGGGAUUCCCUGGGCUCCUCUCUCGUCCUGUCCGUCGCAGGCUUUGCAGUUGGCAGGGUGCCUUUCCCAGCUCCACUCCGGUUUGUUCUUGUAUCAGGGACUGCUGCAAGCCCUUGAGGGAAUCUCGCCAGAAUUGGGCCCGACGCUGGACACGUUGCAGCUCGACGUGGCGGAUUUCGCAACAACCAUCUGGCAGCAGAUGGAGGAACUGGGGAUGGCACCCGCGCUGCAGCCCACGCAGGGGGCAAUGCCGGCCUUUGCGUCCGCGUUUCAGCGCAGGGCGGGUGGAGUCCUCGUAGCGAGCCACCUUCAAUCAUUUUUGGAAGUCUCGUACCGGGUGCUGAGACAUCUUGCGCAGCCGUGAAGCGCUGCCUUCUGCGGGGCUUGCCUUCUGGCCAUGCCCUUCUUCUCUCCCUUGCACCUGUACCUCUUGGUCUUUGAAUAAAGCCUGAGUAGGAAG
# modifications: 5-methylcytosine, N1-methylpseudouridine
# Experiments:
# [1] = system: mice; test: Example 39: Factor IX mmRNA IM in mice, serum Factor IX at 13 hours; format: in vivo; conditions: 2×100 ug/mouse IM
# Method: Human Factor IX mmRNA (Gen1; fully modified 5-methycytosine and pseudouridine) formulated in formulation buffer was delivered to mice via intramuscular injection.
# The mice were bled at 13 hours after the intramuscular injection to determine the concentration of human the polypeptide in serum in pg/mL.
# [2] = system: mice; conditions: for Serum Concentration 8-12 hours after administration: Factor IX; for Factor IX Protein Expression, Conc: LNP IV, mice, 8 hrs
# [3] = system: HEK 293A cells; test: Example 64B: Factor IX mRNA half-life by quantitative Real-Time PCR; format: cell-based, Human; conditions: HEK293
# Method: The transfection complexes were removed 3 hours after transfection. […] Total RNA was isolated and used for cDNA synthesis.
# [4] = system: HEK293A; test: Example 44: signal sequence exchange, secreted G-CSF ELISA (Table 70); format: cell-based; conditions: 293A, 250 ng mRNA, Lipofectamine 2000, supernatant 24 hrs
# Source text: (§1) These variants included the G-CSF constructs encoding either the wild-type N terminal secretory signal peptide sequence ([…]; SEQ ID NO: 19), no secretory signal peptide sequence, or secretory signal peptide sequences taken from other mRNAs. These included sequences where the wild type GCSF signal peptide sequence was replaced with the signal peptide sequence of either: human α-1-anti trypsin (AAT) ([…]; SEQ ID NO: 20), human Factor IX (FIX) ([…]; SEQ ID NO: 21), human Prolactin (Prolac) ([…]; SEQ ID NO: 22), or human Albumin (Alb) ([…]; SEQ ID NO: 23).
# (§2) 250 ng of modified mRNA encoding each G-CSF variant was transfected into HEK293A (293A in the table), mouse myoblast (MM in the table) (C2C12, CRL-1772, ATCC) and rat myoblast (RM in the table) (L6 line, CRL-1458, ATCC) cell lines in a 24 well plate using 1 ul of Lipofectamine 2000 (Life Technologies), each well containing 300,000 cells. […] The data shown in Table 70 reveal that cells transfected with G-CSF mmRNA encoding the Albumin signal peptide secrete at least 12 fold more G-CSF protein than its wild type counterpart.
# [5] = system: rat myoblast (L6 line); test: as above; format: cell-based; conditions: RM (rat myoblast L6), 250 ng mRNA, supernatant 24 hrs
# Source text: as §1, §2
# [6] = system: mouse myoblast (C2C12); test: as above; format: cell-based; conditions: MM (mouse myoblast C2C12), 250 ng mRNA, supernatant 24 hrs
# Source text: as §1, §2
# [7] = Example 64A: Factor IX mRNA in serum-free media, peptides by MALDI; format: cell-based
# Source text: The cell culture supernatant was collected and subjected to trypsin digestion before undergoing 2-dimensional HPLC separation of the peptides. Matrix-assisted laser desorption/ionization was used to detect the peptides. 8 peptides were detected and 7 of the detected peptides are unique to Factor IX.
# [8] = system: BJ fibroblasts; conditions: for IFN-beta / IL-6: 250 ng transfected daily for 5 days
# [9] = system: C57/BL6 mice; test: Example 32C: G-CSF lipoplex vs saline IM, SC in mice, serum G-CSF ELISA at 13 hours (Table 57); format: in vivo; conditions: IM or SC
# Method: A formulation containing 100 μg of either modified human G-CSF mRNA lipoplexed with 30% by volume of RNAIMAX™ with a 5-methylcytosine (5mc) and a pseudouridine (ψ) modification (G-CSF-Gen1-Lipoplex), modified human G-CSF mRNA with a 5mc and ψ modification in saline (G-CSF-Gen1-Saline), modified human G-CSF mRNA with a N1-5-methylcytosine (N1-5mc) and a ψ modification lipoplexed with 30% by volume of RNAIMAX™ (G-CSF-Gen2-Lipoplex), modified human G-CSF mRNA with a N1-5mc and ψ modification in saline (G-CSF-Gen2-Saline), modified luciferase with a 5mc and ψ modification lipoplexed with 30% by volume of RNAIMAX™ (Luc-Lipoplex), or modified luciferase mRNA with a a 5mc and w modification in saline (Luc-Saline) was delivered intramuscularly (I.M.) or subcutaneously (S.C.) and a control group for each method of administration was giving a dose of 80 uL of the formulation buffer (F. Buffer) to C57/BL6 mice. 13 hours post injection serum and tissue from the site of injection were collected from each mouse and analyzed by G-CSF ELISA to compare human G-CSF protein levels. The results of the human G-CSF protein in mouse serum from the intramuscular administration and the subcutaneous administration results are shown in Table 57.
# [10] = system: human PBMC; test: Example 45: PBMC transfection, IFN-alpha ELISA (Table 72); format: cell-based
# Method: (§3) The plates were then incubated at 37 C.
# (§4) Each condition was done in duplicate.
# (§5) Shown in Tables 71 and 72 are the average from 2 separate PBMC donors of the G-CSF and IFN-alpha production over time as measured by specific ELISA.
# [11] = system: mice; test: Example 40: multi-site IM/SC G-CSF mRNA in mice, neutrophil count (Table 65); format: in vivo; conditions: day 3
# Method: Injection of four doses or 2×50 ug (two sites) daily for three days (24 hrs interval) was performed. The fourth dose was administered 6 hrs before blood collection and CBC analysis. […] The mice were bled at 72 hours after the first mRNA injection (6 hours after the last mRNA dose) to determine the effect of mRNA-encoded human G-CSF on the neutrophil count. The dosing regimen is shown in Table 65 as are the resulting neutrophil counts (thousands/uL). In Table 65, an asterisks (*) indicate statistical significance at p<0.05.
# [12] = system: Sprague Dawley rats; test: Example 60: G-CSF/Factor IX mRNA IM in rats, serum G-CSF ELISA (Table 94); format: in vivo
# Method: Protein production of modified mRNA was evaluated by delivering modified G-CSF mRNA or modified Factor IX mRNA to female Sprague Dawley rats (n=6). […] Blood was collected 8 hours after injection and the G-CSF protein level in serum was measured by ELISA.
# [13] = system: BALB/C mice; test: Example 59: G-CSF mRNA IM in mice, serum human G-CSF and mouse IFN-alpha ELISA (Table 93); format: in vivo
# [14] = system: human PBMC; test: Example 45: PBMC transfection, G-CSF ELISA (Table 71); format: cell-based
# Method: as §3, §4, §5
molecule,measurement,setting,value
"Factor IX: modified mRNA encoding human Factor IX, SEQ ID NO: 8, Cap1, fully modified with 5-methylcytosine and pseudouridine",Factor IX in serum,[1],1600 pg/mL
same,Factor IX protein expression determined by ELISA,[2]; 100 ug dose group,3000 to 11000 ng/mL
same,Serum Concentration 8-12 hours after administration,"[2]; IM, 2 × 100 ug",~1.6 ng/mL
same,Serum Concentration 8-12 hours after administration,"[2]; IV (LNP), 1 ug",~40 ng/mL
same,Serum Concentration 8-12 hours after administration,"[2]; IV (LNP), 10 ug",~400 ng/mL
same,Serum Concentration 8-12 hours after administration,"[2]; IV (LNP), 100 ug","~3,000-10,000 ng/ml"
same,"Factor IX Protein Expression, Conc",[2]; dose 10 ug,383.04 ng/mL
same,"Factor IX Protein Expression, Conc","[2]; dose 100 ug, dilution factor 50x",3247.75 ng/mL
same,"Factor IX Protein Expression, Conc","[2]; dose 100 ug, dilution factor 250x",11177.20 ng/mL
same,half-life of mRNA,[3],8 to 10 h
same,secreted G-CSF protein,[4],11675 pg/mL
same,secreted G-CSF protein,[5],11675 pg/mL
same,secreted G-CSF protein,[6],6175 pg/mL
same,Factor IX protein expression (peptides by MALDI),[7],able to express full-length Factor IX protein
B1,"time to cytokine response (IFN-beta, IL-6)",[8],3 to 5 days
same,IFN-beta,[8]; 6 hours,0 pg/mL
same,IL-6,[8]; 6 hours,3337 pg/mL
same,IFN-beta,[8]; Day 1,0 pg/mL
same,IL-6,[8]; Day 1,3733 pg/mL
same,IFN-beta,[8]; Day 2,150 pg/mL
same,IL-6,[8]; Day 2,974 pg/mL
same,IFN-beta,[8]; Day 3,213 pg/mL
same,IL-6,[8]; Day 3,4972 pg/mL
same,IFN-beta,[8]; Day 4,1400 pg/mL
same,IL-6,[8]; Day 4,4122 pg/mL
same,IFN-beta,[8]; Day 5,350 pg/mL
same,IL-6,[8]; Day 5,2906 pg/mL
same,human G-CSF protein production relative to 5-methylcytosine/pseudouridine mRNA,[9],increased human G-CSF protein production
same,IFN-alpha / cytokine production,[10],did not significantly increase cytokines
same,increase in neutrophil count above control,[11]; intramuscular,two fold increase
same,increase in neutrophil count above control,[11]; subcutaneous,two fold increase
same,"human G-CSF protein production, Gen 2 vs Gen 1 chemistry","[12]; 400 ug IM, rats, 8 hours",human G-CSF protein production is improved
same,G-CSF protein in rat serum,"[12]; I.M., 400 ug in 100 ul, 5% sucrose, 8 hours after injection",64.72 pg/mL
same,Protein: Cytokine Ratio (PC Ratio),[13]; G-CSF / IFN-alpha,748
same,human G-CSF expression in mouse serum,"[13]; IM, 8 hours",resulted in human G-CSF expression in mouse serum
same,mouse IFN-alpha in the serum (cytokine response),"[13]; IM, 8 hours",no detectable IFN-alpha
same,G-CSF production,[14],highest level of G-CSF production
